Source: patent US20230093708A1, “PROTEIN NANOPARTICLE DESIGN AND APPLICATION” (Duke University, priority 2020, published 2023)

Legend:
[1] = Temperature-programmed dynamic light scattering; format: physicochemical; conditions: between 4 °C and 37 °C; micelles 20-37 °C; 10 μM in 140 mM PBS
Description: Temperature-programmed dynamic light scattering experiments were carried out using a Dynapro plate reader (Wyatt Technology; Santa Barbara, Calif.) with samples filtered through 0.45 μm Millex-GV filters. Data were collected at increments of 1° C., and the cumulant fit hydrodynamic radius was taken as the radius. The Tt was defined as the temperature at which aggregates of size hundreds of nanometers were formed.
Each block co-polypeptide was analyzed by dynamic light scattering (DLS) at several temperatures between 4° C. and 37° C. to determine the thermal stability of the micelles, and to determine their radius of hydration (Rh). […] In contrast, RLP40-ELP80 (SEQ ID NO: 84) and RLP40-ELP80-Fn3 (SEQ ID NO: 96) self-assembled into micelles with a Rh of 30 and 32 nm, respectively, between 20-37° C. (FIG. 15).
Therefore, to get a more accurate picture, we monitored the Rh as we slowly cooled the solution. We observed two different overall behaviors. [S]-40-[QHN]-40 (SEQ ID NO: 100) upon cooling underwent a clear unimer to micelle transition at ˜55° C. and a clear micelle to aggregate transition at 28° C. (FIG. 32B). A unimer to micelle transition that is temperature dependent is known as the critical micellization temperature (CMT). As we know from before, this UCST aggregation temperature is dependent on the solution concentration. [S]-80-[QHN]-40 (SEQ ID NO: 101) remained a micelle at the highest temperature we could measure with the instrument. Upon cooling the size of the aggregate increased slightly until a clear aggregate transition at 18° C.

[2] = system: K562+αvβ3 cell line; assay: Flow cytometry cell uptake of Alexa488-labeled micelles; format: cell-based; conditions: 10 μM, 37 °C, 2 hours
Description: Approximately 1×10^8 cells were harvested from either K562 or K562+αvβ3 cell lines and resuspended into 1 mL of serum-free medium containing 10 μM of the various Fn3-decorated and control block polypeptides. LM609 antibody was also resuspended at 10 μM in serum-free medium. Micelles were prepared from a mixture of ˜10% Alexa 488 dye-labeled RLP-ELP block co-polypeptides and 90% unlabeled polypeptides on a molar basis. The cells were incubated at 37° C. with the labeled micelles for a specified time, then rinsed with 1 mL of Hanks Buffered Saline Solution (HBSS), collected by centrifugation at 500 RCF for 5 min at 20° C., and resuspended in HBSS+1% BSA. Cells were maintained on ice until they were analyzed by flow cytometry (BD Accuri C5). The cell fluorescence intensity of Alexa 488 (Green) was quantified after gating to remove cellular debris on unstained control samples.
To assess the intracellular uptake of these particles, we used a cell line stably transfected with the αvβ3 integrin. The native cell line, K562, has endogenously low levels of expression of this receptor and therefore serves as the receptor-negative control, and the un-decorated RLPXX-ELP80 micelles serve as ligand-negative controls for each type—size and shape—of micelle. […]

[3] = Static and dynamic light scattering (SLS/DLS) of block co-polypeptides; format: physicochemical; conditions: for Nagg / Rg(nm) / Rh (nm) / ρ: Table 1; for Nagg / Rg(nm) / Rh (nm): 10 μM in PBS, 15 °C; for ρ: shape factor Rg/Rh
Outline: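 Samples at 10 μM in PBS (140 mM NaCl, 10 mM phosphate, 3 mM KCl, pH 7.4), filtered 0.45 μm, measured at 15 °C over 30°–150° in 5° steps. Rh from cumulant fit of DLS, extrapolated to zero angle. Rg and MW from partial Zimm plots of SLS.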

[4] = Cryo-TEM micelle core size, inter-core spacing and aspect ratio; format: physicochemical; conditions: for Spacing (nm) / Core radius (nm): Table 2, mean ± standard deviation; for Spacing (nm): inter-core spacing; for Core radius (nm): 10 μM in 140 mM PBS; for Core Diameter (nm) [n = 30] / Intra-core Spacing (nm) [n = 30]: Table 8, 15 °C, 140 mM PBS, 10 μM
Outline: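 Vitrified 10 μM RLPn-ELP80 (3 s blot, chamber at 15° C., 100% humidity) imaged by cryo-TEM at 80 keV. Core size and spacing measured manually on at least 25 particles; aspect ratio from the longest straight line of a particle and its perpendicular.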

B1: RLP40-ELP80: RLP-ELP block co-polypeptide forming spherical micelles (protein)
chain: QYPSDGRGQYPSDGRGQYPSDGRGQYPSDGRGQYPSDGRGQYPSDGRGQYPSDGRGQYPSDGRGQYPSDGRGQYPSDGRGQYPSDGRGQYPSDGRGQYPSDGRGQYPSDGRGQYPSDGRGQYPSDGRGQYPSDGRGQYPSDGRGQYPSDGRGQYPSDGRGQYPSDGRGQYPSDGRGQYPSDGRGQYPSDGRGQYPSDGRGQYPSDGRGQYPSDGRGQYPSDGRGQYPSDGRGQYPSDGRGQYPSDGRGQYPSDGRGQYPSDGRGQYPSDGRGQYPSDGRGQYPSDGRGQYPSDGRGQYPSDGRGQYPSDGRGQYPSDGRGGAGVPGGGVPGAGVPGGGVPGAGVPGGGVPGAGVPGGGVPGAGVPGGGVPGAGVPGGGVPGAGVPGGGVPGAGVPGGGVPGAGVPGGGVPGAGVPGGGVPGAGVPGGGVPGAGVPGGGVPGAGVPGGGVPGAGVPGGGVPGAGVPGGGVPGAGVPGGGVPGAGVPGGGVPGAGVPGGGVPGAGVPGGGVPGAGVPGGGVPGAGVPGGGVPGAGVPGGGVPGAGVPGGGVPGAGVPGGGVPGAGVPGGGVPGAGVPGGGVPGAGVPGGGVPGAGVPGGGVPGAGVPGGGVPGAGVPGGGVPGAGVPGGGVPGAGVPGGGVPGAGVPGGGVPGAGVPGGGVPGAGVPGGGVPGAGVPGGGVPGAGVPGGGVPGAGVPGGGVPGAGVPGGGVPGAGVPGGGVPGAGVPGGGVPGAGVPGGGVPGAGVPGGGVPGAGVPGGGVPGAGVPGGGVPGAGVPGGGVPGAGVPGGGVPGAGVPGGGVPGAGVPGGGVPGAGVPGGGVPGAGVPGGGVPGAGVPGGGVPGAGVPGGGVPGAGVPGGGVPGAGVPGGGVPGAGVPGGGVPGAGVPGGGVPGAGVPGGGVPGAGVPGGGVPGAGVPGGGVPGAGVPGGGVPGAGVPGGGVPGAGVPGGGVPGAGVPGGGVPGAGVPGGGVPGAGVPGGGVPGAGVPGGGVPGAGVPGGGVPGAGVPGGGVPGAGVPGGGVPGAGVPGGGVPGAGVPGGGVPGAGVPGGGVPGAGVPGGGVPGAGVPGGGVPGAGVPGGGVPGAGVPGGGVPGAGVPGGGVPGAGVPGGGVPGAGVPGGGVP
With B1 the “Rh (DLS at several temperatures)” value [1] was 30 nm, the “cell fluorescence (Geometric Mean±StDev)” value [2] was 8686±8787 and the Nagg [3] was 68. For the same molecule, the “Rg(nm)” value [3] was 29.9 nm, the “Rh (nm)” value [3] was 33.3 nm and the ρ [3] was 0.89. For the same molecule, the “core radius (cryo-TEM)” value [4] was “approximately 12.8 nm”, the “spacing between particle cores (cryo-TEM)” value [4] was 29.5 nm and the “Spacing (nm)” value [4] was 29.5 ± 4.8 nm. The “Core radius (nm)” value [4] was 12.8 ± 1.8 nm, the “Core Diameter (nm) [n = 30]” value [4] was 24.3 ± 2.8 nm and the “Intra-core Spacing (nm) [n = 30]” value [4] was 23.6 ± 4.5 nm.

B2: RLP80-ELP80: RLP-ELP block co-polypeptide forming worm-like micelles (protein)
chain: QYPSDGRGQYPSDGRGQYPSDGRGQYPSDGRGQYPSDGRGQYPSDGRGQYPSDGRGQYPSDGRGQYPSDGRGQYPSDGRGQYPSDGRGQYPSDGRGQYPSDGRGQYPSDGRGQYPSDGRGQYPSDGRGQYPSDGRGQYPSDGRGQYPSDGRGQYPSDGRGQYPSDGRGQYPSDGRGQYPSDGRGQYPSDGRGQYPSDGRGQYPSDGRGQYPSDGRGQYPSDGRGQYPSDGRGQYPSDGRGQYPSDGRGQYPSDGRGQYPSDGRGQYPSDGRGQYPSDGRGQYPSDGRGQYPSDGRGQYPSDGRGQYPSDGRGQYPSDGRGQYPSDGRGQYPSDGRGQYPSDGRGQYPSDGRGQYPSDGRGQYPSDGRGQYPSDGRGQYPSDGRGQYPSDGRGQYPSDGRGQYPSDGRGQYPSDGRGQYPSDGRGQYPSDGRGQYPSDGRGQYPSDGRGQYPSDGRGQYPSDGRGQYPSDGRGQYPSDGRGQYPSDGRGQYPSDGRGQYPSDGRGQYPSDGRGQYPSDGRGQYPSDGRGQYPSDGRGQYPSDGRGQYPSDGRGQYPSDGRGQYPSDGRGQYPSDGRGQYPSDGRGQYPSDGRGQYPSDGRGQYPSDGRGQYPSDGRGQYPSDGRGQYPSDGRGQYPSDGRGGPGAGVPGGGVPGAGVPGGGVPGAGVPGGGVPGAGVPGGGVPGAGVPGGGVPGAGVPGGGVPGAGVPGGGVPGAGVPGGGVPGAGVPGGGVPGAGVPGGGVPGAGVPGGGVPGAGVPGGGVPGAGVPGGGVPGAGVPGGGVPGAGVPGGGVPGAGVPGGGVPGAGVPGGGVPGAGVPGGGVPGAGVPGGGVPGAGVPGGGVPGAGVPGGGVPGAGVPGGGVPGAGVPGGGVPGAGVPGGGVPGAGVPGGGVPGAGVPGGGVPGAGVPGGGVPGAGVPGGGVPGAGVPGGGVPGAGVPGGGVPGAGVPGGGVPGAGVPGGGVPGAGVPGGGVPGAGVPGGGVPGAGVPGGGVPGAGVPGGGVPGAGVPGGGVPGAGVPGGGVPGAGVPGGGVP
With B2 the “Rh (DLS at several temperatures)” value [1] was 112 nm, the “cell fluorescence (Geometric Mean±StDev)” value [2] was 24904±13884 and the “aggregation number (Nagg)” value [3] was “in the thousands of chains”. For the same molecule, the “hydrodynamic radius (Rh)” value [3] was “over 100 nm”, the “radius of gyration (Rg)” value [3] was “above 140 nm” and the “shape factor / form factor (Rg/Rh)” value [3] was “around 1.2”. For the same molecule, the Nagg [3] was 2240, the “Rg(nm)” value [3] was 145.4 nm and the “Rh (nm)” value [3] was 114.3 nm. The ρ [3] was 1.27, the “core radius (cryo-TEM)” value [4] was 19.9 nm and the “spacing between particle cores (cryo-TEM)” value [4] was 34.7 nm. The “Spacing (nm)” value [4] was 34.7 ± 4.2 nm, the “Core radius (nm)” value [4] was 19.9 ± 2.8 nm and the “Core Diameter (nm) [n = 30]” value [4] was 39.4 ± 5.4 nm. The “Intra-core Spacing (nm) [n = 30]” value [4] was 35.0 ± 4.5 nm.
